Results published in the supplement of paper PMC10567573.

B1: TRIM43 (parent)
chain: YQEIFQQLQRSWVKMDQKSKHLKE

Variants of: B1
Assay: protein stability index of a GFP-peptide fusion (GPS, HEK-293T) (PSI 1-6); higher = more stable
Details: c terminus: a fixed tail appended
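Note: lentivirally expressed fusions sorted by FACS into six bins by GFP to DsRed ratio, PSI derived from sequencing read proportions per bin multiplied by bin number.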

Protein stability index of substitutions, site by site:
Q2: T 2.18, M 1.82, I 1.52, R 1.56, E 3.44, S 1.22, F 1.55, N 2.14, P 2.15, W 2.3, G 1.66, H 1.58, K 2.19, V 1.72, D 2.64, A 1.84, Y 1.72, L 1.67, C 2.36
E3: Y 2.39, H 2.47, V 1.93, M 2.13, G 1.35, C 2.13, Q 1.63, L 1.79, P 1.69, S 2.11, W 1.68, T 1.52, D 2.18, I 2.29, F 1.53, R 3.7, N 1.58, A 2.23, K 1.76
F5: R 3.15, I 1.7, V 2.82, Q 3.7, C 2.69, L 2.65, G 3.31, S 3.39, K 3.17, P 2.79, H 3.65, A 2.94, T 3.29, E 4.52, N 3.47, W 2.19, M 2.22, Y 2.57, D 4.05
L8: P 2.06, Y 2.66, K 3.1, H 3.06, Q 2.88, W 2.85, C 2.44, R 3.03, G 2.74, F 2.62, N 2.87, E 3.06, I 1.97, S 2.58, M 2.66, V 2.09, D 2.71, T 3.24, A 2.78
Q6: E 2.95, K 1.85, N 2.21, G 2.52, R 2.63, I 2.27, M 2.49, T 2.8, S 2.19, A 2.04, D 2.74, C 2.07, V 1.85, F 1.93, Y 2.65, H 2.17, P 2.28, L 1.55, W 2.03
R10: G 3.03, H 2.27, K 2.12, I 2.95, E 2.66, A 2.74, F 1.78, D 2.99, L 2.4, C 1.96
I4: W 2.94, Y 1.5, H 1.85, S 1.94, P 1.93, L 2.19, N 1.61, T 1.96, C 1.44, Q 1.85, R 2.05, V 2.16, M 1.51, A 1.98, F 1.8, E 1.78, D 1.47, G 1.01, K 1.87
Y1: W 3.04, T 2.88, S 3.7, V 1.29, R 2.96
Q7: K 1.61, F 1.52, A 1.87, G 2.59, T 1.82, R 1.66, N 2.23, Y 2.53, M 2.13, L 2.11, V 1.65, S 2.89, D 2.79, I 2.08, P 2.28, W 3.41, H 2.42, C 1.94, E 2.52
Q9: L 1.83, K 1.88, A 1.83, S 2.58, R 3.11, F 2.23, M 2.32, D 2.6, W 2.39, C 1.4, G 2.59, H 1.95, T 2.19, P 2.73, N 2.25, E 2.72, I 1.71, V 1.88, Y 2.67
